Patent US9540654B2, “Synthetic brassica-derived chloroplast transit peptides” (Dow AgroSciences LLC, priority 2012, dated 2017)

B1: TraP23: chloroplast transit peptide (SEQ ID NO:41) linked with dgt-28 or dgt-31 (protein)
chain: MAQINKSANGVRNASLISNFSNTRQAKSPFSLSCGTRLKNSSRGLKKVAVRLIGSRVKVSAS
modifications: Chloroplast Transit Peptide
B2: TraP13: chimeric chloroplast transit peptide SEQ ID NO:8, N-terminus from Arabidopsis thaliana, C-terminus from Brassica napus EPSPS (protein)
chain: MAQVSRICNGVQNPSLISNLSKSSQRKSPLSVSLKTQQPRASSWGLKKSGTMLNGSVIRPVKVTASVS
modifications: TraP13 chloroplast transit peptide
B3: TraP8: chloroplast transit peptide (SEQ ID NO:30) linked with dgt-28 (protein)
chain: MAQSSRICHGVQNPCVIISNLSKSNQNKSPFSVSLKTHQQQRRAYQISSWGLKKSNNGSVIRPVKA
modifications: Chloroplast Transit Peptide
B4: TraP5: chloroplast transit peptide (SEQ ID NO:29) linked with dgt-28 (protein)
chain: MQLLNQRQALRLGRSSASKNQQVAPLASRPASSLSVSASSVAPAPACSAPAGAGRRAVVVRA
modifications: Chloroplast Transit Peptide

Tests used:
Zea mays B104 = assay: Post-emergence glyphosate tolerance of dgt-28 T0 corn (greenhouse); type: in vivo; conditions: for protection to glyphosate: T0 corn, dgt-28 linked to the transit peptide
Protocol: Zea mays dgt-28 transformation events (T0) were allowed to acclimate in the greenhouse and were grown until plants had transitioned from tissue culture to greenhouse growing conditions (i.e., 2-4 new, normal looking leaves had emerged from the whorl). Plants were grown at 27° C. under 16 hour light:8 hour dark conditions in the greenhouse. The plants were then treated with commercial formulations of DURANGO DMA™ (containing the herbicide glyphosate) with the addition of 2% w/v ammonium-sulfate. Herbicide applications were made with a track sprayer at a spray volume of 187 L/ha, 50-cm spray height. T0 plants were sprayed with a range of glyphosate from 280-4480 g ae/ha glyphosate, which is capable of significant injury to untransformed corn lines. A lethal dose is defined as the rate that causes >95% injury to the B104 inbred.
T0 events of dgt-28 linked with TraP4, TraP5, TraP8 and TraP23 were generated by Agrobacterium transformation and were allowed to acclimate under controlled growth chamber conditions until 2-4 new, normal looking leaves had emerged from the whorl. Plants were assigned individual identification numbers and sampled for copy number analyses of both dgt-28 and aad-1. Based on copy number analyses, plants were selected for protein expression analyses. Plants were transplanted into larger pots with new growing media and grown at 27° C. under 16 hour light:8 hour dark conditions in the greenhouse. Remaining plants that were not sampled for protein expression were then treated with commercial formulations of DURANGO DMA™ (glyphosate) with the addition of 2% w/v ammonium-sulfate. Treatments were distributed so that each grouping of plants contained T0 events of varying copy number. Herbicide applications were made with a track sprayer at a spray volume of 187 L/ha, 50-cm spray height. T0 plants were sprayed with a range of glyphosate from 280-4480 g ae/ha glyphosate capable of significant injury to untransformed corn lines. A lethal dose is defined as the rate that causes >95% injury to the B104 inbred. B104 was the genetic background of the transformants.

[1] = tested on: tobacco (cv. Petit Havana); assay: Postemergence glyphosate tolerance of dgt-28 tobacco (T1, T2); type: in vivo; conditions: T1 tobacco, 2240 g ae/ha glyphosate, 14 DAT
Text: T1 resistant plants from each event used in the progeny testing were given unique identifiers and sampled for zygosity analyses of the dgt-28 gene. Zygosity data were used to assign 2 hemizygous and 2 homozygous replicates to each rate of glyphosate applied allowing for a total of 4 replicates per treatment. These plants were compared against wildtype Petite havana tobacco. All plants were sprayed with a track sprayer set at 187 L/ha. The plants were sprayed from a range of 560-4480 g ae/ha DURANGO DMA™. All applications were formulated in water with the addition of 2% w/v ammonium sulfate (AMS). Plants were evaluated at 7 and 14 days after treatment. Plants were assigned an injury rating with respect to overall visual stunting, chlorosis, and necrosis. The T1 generation is segregating, so some variable response is expected due to difference in zygosity.
Rates of DURANGO DMA™ ranging from 420-3360 g ae/ha glyphosate were applied to 2-3 leaf tobacco as previously described.

[2] = tested on: chloroplasts of the tobacco leaf tissue; assay: Tobacco transient assay, confocal microscopy of TraP-YFP; type: cell-based, Nicotiana benthamiana; conditions: Agrobacterium-infiltrated tobacco leaves
Text: The Trap12 and TraP13 chimeric chloroplast transit peptide sequences were initially tested via a transient in planta assay. Polynucleotide sequences which encode the Trap12 (SEQ ID NO:5) and TraP13 (SEQ ID NO:7) chimeric chloroplast transit peptide sequences were synthesized. A linker sequence (SEQ ID NO:10) was incorporated between the TraP sequence and the yfp coding sequence. The resulting constructs contained two plant transcription units (PTU). The first PTU was comprised of the Arabidopsis thaliana Ubiquitin 10 promoter (AtUbi10 promoter; Callis, et al., (1990) J. Biol. Chem., 265: 12486-12493), Trap yellow fluorescent protein fusion gene (TraP-YFP; US Patent App. 2007/0298412), and Agrobacterium tumefaciens ORF 23 3′ untranslated region (AtuORF23 3′UTR; U.S. Pat. No. 5,428,147). […]
Agrobacterium-infiltrated tobacco leaves were severed from the plant, and placed into a petri-dish with water to prevent dehydration. The infiltrated tobacco leaves were observed under blue light excitation with long-pass filter glasses held in place using a Dark Reader Hand Lamp™ (Clare Chemical Research Co.; Dolores, Colo.) to identify undamaged areas of the leaf that were successfully expressing the YFP reporter proteins. […]

| Molecule | glyphosate concentration controlling non-transformed plants (Zea mays B104; non-transformed corn plants) | % Injury Ave [1] | protection to glyphosate (Zea mays B104) | localization of YFP fluorescence signal (microscopy imaging) [2] |
| --- | --- | --- | --- | --- |
| O=C(O)CNCP(=O)(O)O [glyphosate, reference compound] | ≥ 280 g ae/ha |  |  |  |
| B1 |  | 9.5% | robust protection |  |
| B2 |  |  |  | accumulated within the chloroplasts |
| B3 |  | 9.3% | robust protection |  |
| B4 |  |  | robust protection |  |
